The IC50 is the concentration at which inhibition is half-maximal. Read a high IC50 as weaker potency in that assay.

Sequences and labels used below:
B1: ST1-61, …(FB) (peptide)
peptide: H-RGDLRELAK(Benzoyl(4-F))-NH2
SMILES: CC(C)C[C@H](NC(=O)[C@H](CCC(=O)O)NC(=O)[C@H](CCCNC(=N)N)NC(=O)[C@H](CC(C)C)NC(=O)[C@H](CC(=O)O)NC(=O)CNC(=O)[C@@H](N)CCCNC(=N)N)C(=O)N[C@@H](C)C(=O)N[C@@H](CCCCNC(=O)c1ccc(F)cc1)C(N)=O
notes: free N-terminus; also called Peptide 5
B2: ST1-59, …(FB) (peptide)
peptide: H-RGDLMKLAK(Benzoyl(4-F))-NH2
SMILES: CSCC[C@H](NC(=O)[C@H](CC(C)C)NC(=O)[C@H](CC(=O)O)NC(=O)CNC(=O)[C@@H](N)CCCNC(=N)N)C(=O)N[C@@H](CCCCN)C(=O)N[C@@H](CC(C)C)C(=O)N[C@@H](C)C(=O)N[C@@H](CCCCNC(=O)c1ccc(F)cc1)C(N)=O
notes: free N-terminus; also called Peptide 2
B3: Ac-…(FB) (peptide)
peptide: XGDLTYLKX
modifications: N-terminal acetyl (Ac); fluorobenzoyl (FB) on the side chain of the C-terminal lysine
notes: N-acetylated variant of ST1-62
B4: FB-…(FB) (peptide)
peptide: XGDLTYLKX
modifications: N-terminal fluorobenzoyl (FB); fluorobenzoyl (FB) on the side chain of the C-terminal lysine
notes: N-fluorobenzoylated variant of ST1-62
B5: FB-…(Ac) (peptide)
peptide: XGDLTYLKX
modifications: N-terminal fluorobenzoyl (FB); acetyl (Ac) on the side chain of the C-terminal lysine
notes: as for B4
B6: FB-…(FB)-PEG28 (peptide)
peptide: XGDLTYLKXX
modifications: N-terminal fluorobenzoyl (FB); fluorobenzoyl (FB) on the side chain of the C-terminal lysine; PEG28 attached to the C-terminal lysine
notes: also called ST1-92
B7: FB-…(Ac)-PEG28 (peptide)
peptide: XGDLTYLKXX
modifications: N-terminal fluorobenzoyl (FB); acetyl (Ac) on the side chain of the C-terminal lysine; PEG28 attached to the C-terminal lysine
notes: N-fluorobenzoylated, C-PEGylated variant of ST1-62
B8: Me-…(FB) (peptide)
peptide: XGDLTYLKX
modifications: N-terminal methyl (Me); fluorobenzoyl (FB) on the side chain of the C-terminal lysine
notes: N-methylated variant of ST1-62

*: point of attachment. Benzoyl(4-F) = O=C(c1ccc(F)cc1)*

αvβ3 integrin (purified), sequence (P06756 31-992, chain 1 of 2): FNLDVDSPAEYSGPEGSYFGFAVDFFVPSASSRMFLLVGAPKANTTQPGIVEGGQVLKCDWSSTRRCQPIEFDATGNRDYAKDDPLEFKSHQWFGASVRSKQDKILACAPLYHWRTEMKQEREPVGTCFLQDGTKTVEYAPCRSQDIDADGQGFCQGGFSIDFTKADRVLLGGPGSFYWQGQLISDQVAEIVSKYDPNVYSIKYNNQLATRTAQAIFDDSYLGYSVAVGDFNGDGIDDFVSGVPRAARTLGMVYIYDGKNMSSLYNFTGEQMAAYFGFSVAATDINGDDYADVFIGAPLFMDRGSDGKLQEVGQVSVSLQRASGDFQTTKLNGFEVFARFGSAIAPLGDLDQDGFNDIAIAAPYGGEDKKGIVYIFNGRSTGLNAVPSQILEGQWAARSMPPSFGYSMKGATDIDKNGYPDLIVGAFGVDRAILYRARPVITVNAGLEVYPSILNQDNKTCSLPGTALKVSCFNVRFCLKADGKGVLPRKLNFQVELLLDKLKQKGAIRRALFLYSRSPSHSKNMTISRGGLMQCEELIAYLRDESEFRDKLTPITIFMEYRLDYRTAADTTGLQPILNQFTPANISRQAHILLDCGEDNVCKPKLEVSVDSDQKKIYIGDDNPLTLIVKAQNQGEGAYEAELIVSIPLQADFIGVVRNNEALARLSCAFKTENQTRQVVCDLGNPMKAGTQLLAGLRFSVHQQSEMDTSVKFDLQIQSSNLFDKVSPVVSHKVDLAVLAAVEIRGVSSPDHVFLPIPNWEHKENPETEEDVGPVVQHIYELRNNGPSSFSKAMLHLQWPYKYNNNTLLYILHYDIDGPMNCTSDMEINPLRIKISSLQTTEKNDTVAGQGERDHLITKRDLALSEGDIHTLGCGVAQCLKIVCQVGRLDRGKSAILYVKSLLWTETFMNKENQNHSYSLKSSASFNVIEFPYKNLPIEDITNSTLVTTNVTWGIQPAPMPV
αvβ3 integrin (purified), sequence (P05106 27-718, chain 2 of 2): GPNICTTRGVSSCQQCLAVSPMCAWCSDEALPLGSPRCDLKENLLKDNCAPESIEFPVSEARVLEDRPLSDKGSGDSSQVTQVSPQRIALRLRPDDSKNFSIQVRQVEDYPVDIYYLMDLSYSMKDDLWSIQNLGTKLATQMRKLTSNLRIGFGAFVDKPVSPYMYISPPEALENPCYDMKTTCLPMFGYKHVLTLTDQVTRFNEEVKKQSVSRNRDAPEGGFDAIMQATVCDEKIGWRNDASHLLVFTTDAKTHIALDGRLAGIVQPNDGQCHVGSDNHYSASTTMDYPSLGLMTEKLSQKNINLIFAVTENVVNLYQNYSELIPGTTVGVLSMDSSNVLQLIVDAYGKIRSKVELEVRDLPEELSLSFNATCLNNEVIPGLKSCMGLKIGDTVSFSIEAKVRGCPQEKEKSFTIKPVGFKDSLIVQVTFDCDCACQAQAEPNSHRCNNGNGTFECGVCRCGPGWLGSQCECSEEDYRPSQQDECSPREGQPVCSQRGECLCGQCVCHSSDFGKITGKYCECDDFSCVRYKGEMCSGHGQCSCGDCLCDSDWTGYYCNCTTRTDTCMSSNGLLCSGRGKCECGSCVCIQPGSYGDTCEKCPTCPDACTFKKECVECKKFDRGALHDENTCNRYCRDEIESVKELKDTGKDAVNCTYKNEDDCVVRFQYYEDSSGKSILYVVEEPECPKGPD
αvβ8 integrin (purified), sequence (P06756 31-992, chain 1 of 2): as the sequence (P06756 31-992, chain 1 of 2) above
αvβ8 integrin (purified), sequence (P26012 43-684, chain 2 of 2): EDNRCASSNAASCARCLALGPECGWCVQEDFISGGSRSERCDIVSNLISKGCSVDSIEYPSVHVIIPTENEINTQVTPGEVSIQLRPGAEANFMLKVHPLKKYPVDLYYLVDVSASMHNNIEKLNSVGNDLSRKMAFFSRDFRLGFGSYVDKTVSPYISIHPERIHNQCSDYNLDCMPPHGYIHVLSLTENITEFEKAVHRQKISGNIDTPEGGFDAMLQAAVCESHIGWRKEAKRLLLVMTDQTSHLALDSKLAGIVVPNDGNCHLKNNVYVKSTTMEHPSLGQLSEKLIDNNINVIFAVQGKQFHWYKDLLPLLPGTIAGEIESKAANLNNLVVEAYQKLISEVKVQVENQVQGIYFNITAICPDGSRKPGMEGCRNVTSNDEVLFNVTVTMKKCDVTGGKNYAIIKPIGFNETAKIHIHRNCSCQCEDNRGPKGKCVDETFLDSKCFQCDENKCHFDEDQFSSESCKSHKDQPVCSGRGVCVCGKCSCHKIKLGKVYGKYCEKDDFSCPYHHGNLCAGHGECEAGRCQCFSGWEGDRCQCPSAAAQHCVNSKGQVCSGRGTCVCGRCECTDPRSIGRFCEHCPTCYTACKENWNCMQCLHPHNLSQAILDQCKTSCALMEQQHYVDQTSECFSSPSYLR
αvβ1 integrin (purified), sequence (P06756 31-992, chain 1 of 2): as the sequence (P06756 31-992, chain 1 of 2) above
αvβ1 integrin (purified), sequence (P05556 21-728, chain 2 of 2): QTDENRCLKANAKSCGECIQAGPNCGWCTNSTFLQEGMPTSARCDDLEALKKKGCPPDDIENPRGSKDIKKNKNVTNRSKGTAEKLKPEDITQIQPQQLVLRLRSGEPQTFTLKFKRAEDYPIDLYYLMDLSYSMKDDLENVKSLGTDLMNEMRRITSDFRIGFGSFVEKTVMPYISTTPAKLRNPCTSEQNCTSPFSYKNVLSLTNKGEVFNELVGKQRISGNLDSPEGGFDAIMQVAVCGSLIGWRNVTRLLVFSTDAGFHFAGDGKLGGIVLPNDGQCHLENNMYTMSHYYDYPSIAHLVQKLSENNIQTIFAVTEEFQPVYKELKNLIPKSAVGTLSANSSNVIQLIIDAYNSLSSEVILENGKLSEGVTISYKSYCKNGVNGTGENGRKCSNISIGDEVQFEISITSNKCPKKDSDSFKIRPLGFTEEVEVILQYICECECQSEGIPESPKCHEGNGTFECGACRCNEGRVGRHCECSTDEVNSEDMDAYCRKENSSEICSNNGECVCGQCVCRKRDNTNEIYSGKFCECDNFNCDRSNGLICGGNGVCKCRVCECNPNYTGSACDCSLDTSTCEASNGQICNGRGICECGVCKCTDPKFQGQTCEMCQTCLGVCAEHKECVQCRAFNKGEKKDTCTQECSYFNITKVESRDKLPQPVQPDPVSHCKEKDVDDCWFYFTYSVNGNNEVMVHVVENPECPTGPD
T1 sequence (P06756 31-992, chain 1 of 2): as the sequence (P06756 31-992, chain 1 of 2) above
T1 sequence (P18564 22-707, chain 2 of 2): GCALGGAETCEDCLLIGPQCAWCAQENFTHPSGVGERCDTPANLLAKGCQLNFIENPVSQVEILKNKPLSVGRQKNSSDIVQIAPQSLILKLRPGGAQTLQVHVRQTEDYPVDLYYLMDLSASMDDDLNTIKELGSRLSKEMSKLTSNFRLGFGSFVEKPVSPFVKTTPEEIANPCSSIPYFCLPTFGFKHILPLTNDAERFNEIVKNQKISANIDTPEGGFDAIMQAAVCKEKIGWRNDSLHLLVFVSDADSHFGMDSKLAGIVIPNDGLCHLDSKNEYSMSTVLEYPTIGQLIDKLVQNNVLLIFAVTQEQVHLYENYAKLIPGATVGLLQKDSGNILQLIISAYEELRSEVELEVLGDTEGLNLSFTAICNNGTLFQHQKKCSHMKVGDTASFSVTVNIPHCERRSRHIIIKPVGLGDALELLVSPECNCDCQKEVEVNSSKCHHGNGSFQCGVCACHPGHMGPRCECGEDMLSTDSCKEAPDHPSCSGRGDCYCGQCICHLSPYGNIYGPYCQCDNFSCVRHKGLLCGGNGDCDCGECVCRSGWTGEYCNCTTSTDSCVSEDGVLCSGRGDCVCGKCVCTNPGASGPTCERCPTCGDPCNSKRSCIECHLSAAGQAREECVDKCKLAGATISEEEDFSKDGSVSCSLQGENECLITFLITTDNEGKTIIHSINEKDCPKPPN

One assay addresses αvβ1 integrin (purified) (UniProt P06756 31-992; P05556 21-728). Nature of the assay: competitive binding ELISA, purified integrin; competitor biotinylated natural ligand. The method, then: (§1) Anti-αᵥ capture antibody P2W7 (5 μg/mL, Novus Biologicals) was coated onto Nunc MaxiSorp 96-well plates, followed by blocking with BSA overnight at 4° C. All wells were washed 3 times with PBS, followed by plating of purified integrin (3 μg/mL) and incubating at room temperature in a humid chamber for 1 hour. Peptide solutions, titrated (1 μM-1 pM for integrin and 100 μM-100 pM for αᵥβ₃ integrin) and mixed with biotinylated natural ligand, were added to the integrin-coated wells in triplicate. After incubating for an hour at room temperature, the plate was washed 3 times with wash buffer. Captured biotinylated natural ligand was detected with ExtrAvidin-HRP and developed with TMB substrate. Half-maximal inhibitory concentration (IC₅₀) of peptides was determined fitting to sigmoidal dose-response model in GraphPad Prism 6.0 (FIG. 5A). Results are shown in FIG. 5B and below in Table 2.
For orientation: ELISA stands for enzyme-linked immunosorbent assay.
As for B1, the IC50 stood at 2300 nM.
The same measure, in the same setting: as for B2, the figure is 900 nM.
The same measure, in the same setting: as for H-RGDLADLRK(Benzoyl(4-F))-NH2 (free N-terminus; also called Peptide 3) [ST1-60, …(FB)], the figure is 600 nM.

For a further assay, the target named is αvβ8 integrin (purified) (UniProt P06756 31-992; P26012 43-684). The description is as above. The method, then:
as §1
H-VGDLTYLKK(4‑fluorobenzoyl)-NH2 (free N-terminus; also called Peptide 1) [ST1-62, …(FB)] showed an IC50 of 5300 nM.
Same read-out and setting: as for B1, the figure is 2600 nM; as for B2, 2590 nM; as for H-RGDLADLRK(Benzoyl(4-F))-NH2 (free N-terminus; also called Peptide 3) [ST1-60, …(FB)], 160 nM.

Another assay addresses αvβ3 integrin (purified) (UniProt P06756 31-992; P05106 27-718). The assay is described as above. The method, then:
as §1
Molecule B1 had a half-inhibitory concentration (IC50) of 300 nM.
With B2, the IC50 was 2200 nM.
Consider H-RGDLADLRK(Benzoyl(4-F))-NH2 (free N-terminus; also called Peptide 3) [ST1-60, …(FB)], for which the IC50 came to 500 nM.

Another assay addresses T1, αvβ6 integrin (purified) (UniProt P06756 31-992; P18564 22-707).
T1 construct: Purified integrin captured on plate by anti-αv antibody P2W7; also called purified integrin
The description is as above. The method, then:
as §1
On to H-VGDLTYLKK(4‑fluorobenzoyl)-NH2 (free N-terminus; also called Peptide 1) [ST1-62, …(FB)], for which the IC50 came to 11 nM.
Still for that read-out and setting: the result for B1 reads 1.1 nM; that for B2, 2.7 nM.
In the case of H-RGDLADLRK(Benzoyl(4-F))-NH2 (free N-terminus; also called Peptide 3) [ST1-60, …(FB)], the half-inhibitory concentration (IC50) amounted to 4.7 nM.

The target of another assay is T1, αvβ6 integrin (purified). Nature of the assay: ELISA, αvβ6 integrin.
B3 displayed an IC50 of 1600 nM.
Still for that read-out and setting: as for B4, the figure is 21.9 nM.
Still for that read-out and setting: as for B5, the figure is 4.3 nM; as for B6, 17.6 nM; as for B7, 15.5 nM.
Still for that read-out and setting: as for B8, the figure is 500 nM.

These data come from US20190328910A1 (University of California, published 2019).
